Data on three proteins can be found in article PMC10904899, “Protein engineering of transaminase facilitating enzyme cascade reaction for the biosynthesis of azasugars” (iScience, 2024).

Substrate in this data set: C[C@@H](N)c1ccccc1
Nature of the data set: HPLC of acetophenone, nonlinear regression. The format is biochemical, Mycolicibacterium austroafricanum. The note with it: 20 mM D-fructose, 0.1 mM PLP, pH 6.0, 30°C. From the text: HPLC of acetophenone, nonlinear regression on MvTA

B1: MvTA (Mycolicibacterium vanbaalenii PYR-1) (protein)
chain: MGIDTGTSNLVAVEPGAIREDTPAGSVIQYSDYEIDYSSPFAGGVAWIEGEYLPAEDAKISIFDTGFGHSDLTYTVAHVWHGNIFRLGDHLDRLLDGARKLRLDSGYTKDELADITKKCVSLSQLRESFVNLTITRGYGKRKGEKDLSKLTHQVYIYAIPYLWAFPPAEQIFGTTAVVPRHVRRAGRNTVDPTIKNYQWGDLTAASFEAKDRGARTAILMDADNCVAEGPGFNVCIVKDGKLASPSRNALPGITRKTVFEIAGAMGIEAALRDVTSHELYDADEIMAVTTAGGVTPINTLDGVPIGDGEPGPVTVAIRDRFWALMDEPGPLIEAIQY
notes: homodimer; PLP on Lys195
Turning to B1, the Km was found to be 0.71 mM, the turnover number (kcat) amounted to 0.0127 s⁻¹ and the kcat/Km was 17.8 M⁻¹ s⁻¹.

B2: MvTA (Mycolicibacterium vanbaalenii PYR-1; A168E/H152N/H69K/K142P/K145R/L162I/R215G/S105P/S121M) (protein)
chain: MGIDTGTSNLVAVEPGAIREDTPAGSVIQYSDYEIDYSSPFAGGVAWIEGEYLPAEDAKISIFDTGFGKSDLTYTVAHVWHGNIFRLGDHLDRLLDGARKLRLDPGYTKDELADITKKCVMLSQLRESFVNLTITRGYGKRPGERDLSKLTNQVYIYAIPYIWAFPPEEQIFGTTAVVPRHVRRAGRNTVDPTIKNYQWGDLTAASFEAKDRGAGTAILMDADNCVAEGPGFNVCIVKDGKLASPSRNALPGITRKTVFEIAGAMGIEAALRDVTSHELYDADEIMAVTTAGGVTPINTLDGVPIGDGEPGPVTVAIRDRFWALMDEPGPLIEAIQY
notes: homodimer; PLP on Lys195
For B2, the Km is on record as 3.93 mM, the kcat was 0.189 s⁻¹ and the catalytic efficiency (kcat/Km) is 48 M⁻¹ s⁻¹.

B3: MvTA (Mycolicibacterium vanbaalenii PYR-1; A168E/H152N/H69R/K142P/K145R/L162I/R215G/S105P/S121M) (protein)
chain: MGIDTGTSNLVAVEPGAIREDTPAGSVIQYSDYEIDYSSPFAGGVAWIEGEYLPAEDAKISIFDTGFGRSDLTYTVAHVWHGNIFRLGDHLDRLLDGARKLRLDPGYTKDELADITKKCVMLSQLRESFVNLTITRGYGKRPGERDLSKLTNQVYIYAIPYIWAFPPEEQIFGTTAVVPRHVRRAGRNTVDPTIKNYQWGDLTAASFEAKDRGAGTAILMDADNCVAEGPGFNVCIVKDGKLASPSRNALPGITRKTVFEIAGAMGIEAALRDVTSHELYDADEIMAVTTAGGVTPINTLDGVPIGDGEPGPVTVAIRDRFWALMDEPGPLIEAIQY
notes: homodimer; PLP on Lys195
Turning to B3, the Km stood at 8.20 mM, the kcat was found to be 0.65 s⁻¹ and the kcat/Km came out at 79.2 M⁻¹ s⁻¹.

Broadly, the Km is the concentration of substrate that gives half-maximal velocity. By kcat is commonly meant the maximal rate divided by the concentration of active sites. In general, kcat/Km refers to the turnover number divided by the Michaelis constant.
